The source of these data is patent US20190284293A1 (Bristol-Myers Squibb, published 2019).

The chains are these.
B1: 11A6 (antibody, human IgG1, kappa, V domains shown)
VH: EVQLVESGGNLVQPGRSLRLSCAASGFTFDDYAMHWVRQAPGKGLEWVSGISWNNNDIGYADSVKGRFIISRDNAKNSLYLQMNSLRPEDTALYYCVKGYYVILTGLDYWGQGTPVTVSS
VL: DIQMTQSPSSLSASVGDRVTITCRASQGISSWLAWYQQKPEKAPKSLIYAASSLQSGVPSRFSGSGSGTDFTLTISSLQPEDFATYYCQQYNSYPLTFGGGTKVEIKR
notes: IgG1za; also called 11A6-1
B2: 7A11 (antibody, human IgG1, kappa, V domains shown)
VH: EVQLVESGGGLVQTGRSLRLSCAASGFTFDDYAMHWVRQAPGKGLEWVSDISWNSDIIGYADSVKGRFTISRDNAKNSLYLQMNSLRAEDTALYYCAKDIYGSGSSFFDYWGQGILVTVSS
VL: B1 VL with G28Y, N92H, L96P, G100Q, K103R, V104L
notes: IgG1za; also called 7A11-1
B3: 10D2 (antibody, human IgG4, kappa, V domains shown)
VH: QVQLVESGGGVVQPGRSLRLSCAASGFTFSNYGLHWVRQAPGKGLEWVAVIRYDGSNKYYADSVKGRFTISRDNSKNTLYLQMSSLRAEDTAVYYCARGGSSWYPDGLDVWGQGTTVTVSS
VL: B1 VL
notes: also called 10D2-2
B4: 24H2 (antibody, human IgG4, kappa, V domains shown)
VH: B3 VH with L34M, R52W, S56G, Y80F, S84N, G107A, L108F, V110I, T116M
VL: B1 VL
notes: also called 24H2-1
B5: 4D4 (antibody, human IgG2, kappa)
heavy: QVQLVESGGGVVQPGRSLRLSCAASGFTFSNYGMHWVRQAPGKGLEWVAVIWYDESNKYYADSVKGRFTISRDNSKNTLFLQMNSLRAEDTAVYYCARGYNSRWYPDAFDIWGQGTMVTVSSASTKGPSVFPLAPCSRSTSESTAALGCLVKDYFPEPVTVSWNSGALTSGVHTFPAVLQSSGLYSLSSVVTVPSSNFGTQTYTCNVDHKPSNTKVDKTVERKCCVECPPCPAPPVAGPSVFLFPPKPKDTLMISRTPEVTCVVVDVSHEDPEVQFNWYVDGVEVHNAKTKPREEQFNSTFRVVSVLTVVHQDWLNGKEYKCKVSNKGLPAPIEKTISKTKGQPREPQVYTLPPSREEMTKNQVSLTCLVKGFYPSDIAVEWESNGQPENNYKTTPPMLDSDGSFFLYSKLTVDKSRWQQGNVFSCSVMHEALHNHYTQKSLSLSPGK
light: not shown
notes: IgG2; also called 4D4-1
B6: 5F8 (antibody, human IgG1, kappa, V domains shown)
VH: EVQLVESGGGLVQPGGSLRLSCAASGFTFSSYWMHWVRQAPGKGLVWVSRIISDGSSTGYADSVKGRFTISRDNAKNTLYLQMNSLRAEDTAVYYCAREFSSGWYFDYWGQGTLVTVSS
VL: AIQLTQSPSSLSASVGDRVTITCRASQGISSALAWYQQKPGKAPKLLIYDASSLESGVPSRFSGSGSGTDFTLTISSLQPEDFATYYCQQFSSYPRTFGQGTKVEIKR
notes: IgG1za; VK2 also expressed; also called 5F8-1
B7: 4C3 (antibody, human IgG1, kappa, V domains shown)
VH: B1 VH with N10G, N54K, N55S, N56G, D57S, I69T, P88A, P115L
VL: not shown
notes: IgG1za; also called 4C3-1
B8: CD73.11-IgG2-C219S (antibody)
heavy: QVQLVESGGGVVQPGRSLRLSCAASGFTFSNYGMHWVRQAPGKGLEWVAVIWYDESNKYYADSVKGRFTISRDNSKNTLFLQMNSLRAEDTAVYYCARGYNSRWYPDAFDIWGQGTMVTVSSASTKGPSVFPLAPCSRSTSESTAALGCLVKDYFPEPVTVSWNSGALTSGVHTFPAVLQSSGLYSLSSVVTVPSSNFGTQTYTCNVDHKPSNTKVDKTVERKSCVECPPCPAPPVAGPSVFLFPPKPKDTLMISRTPEVTCVVVDVSHEDPEVQFNWYVDGVEVHNAKTKPREEQFNSTFRVVSVLTVVHQDWLNGKEYKCKVSNKGLPAPIEKTISKTKGQPREPQVYTLPPSREEMTKNQVSLTCLVKGFYPSDIAVEWESNGQPENNYKTTPPMLDSDGSFFLYSKLTVDKSRWQQGNVFSCSVMHEALHNHYTQKSLSLSPG
light: not shown
notes: 4D4 variable regions; also called CD73.11-IgG2CS; mAb-CD73.11-Vh-hHC-IgG2-C219S

Changes are numbered by the printed parent chain. Names may count otherwise. “And” between values parts separate entries of the source, which are not always exact repeats. Equal values may be shown once.

The target in one experiment is T1, rhCD73 bound to his-tag magnet beads (human, UniProt P21589 27-547, limits assumed).
T1 sequence: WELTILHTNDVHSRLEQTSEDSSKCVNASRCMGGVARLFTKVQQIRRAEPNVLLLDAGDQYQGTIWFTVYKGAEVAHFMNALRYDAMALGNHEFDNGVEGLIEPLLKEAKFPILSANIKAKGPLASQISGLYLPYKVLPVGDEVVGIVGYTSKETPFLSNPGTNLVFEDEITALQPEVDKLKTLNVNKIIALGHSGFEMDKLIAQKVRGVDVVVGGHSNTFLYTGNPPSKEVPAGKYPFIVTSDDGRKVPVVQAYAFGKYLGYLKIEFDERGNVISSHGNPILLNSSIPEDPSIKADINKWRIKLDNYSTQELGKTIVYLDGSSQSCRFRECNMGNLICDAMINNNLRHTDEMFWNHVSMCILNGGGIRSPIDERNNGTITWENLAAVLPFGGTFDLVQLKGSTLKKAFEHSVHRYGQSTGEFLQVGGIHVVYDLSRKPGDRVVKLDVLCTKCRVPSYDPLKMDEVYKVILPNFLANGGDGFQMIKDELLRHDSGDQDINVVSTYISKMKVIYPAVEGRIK
As to the kind of experiment: cell-based or functional assay.
As for B1, the “EC50 (nM), inhibition of bead-bound human CD73 enzymatic activity” value was 3.12 nM.
On the same count and under the same terms, the figure for B2 is 2.86 nM; for B3 it is 6.94 nM.
Still for that read-out and setting: the result for B4 reads 4.18 nM.
On the same count and under the same terms, the figure for B5 is 5.31 nM; for B6 it is 5.76 nM.

Another experiment deals with T2, human CD73 on cells (human, UniProt P21589 27-549).
T2 construct: Endogenous protein; also called endogenous CD73 on Calu6, NCI-H292, SK-MEL-24, human B and T cells
T2 sequence: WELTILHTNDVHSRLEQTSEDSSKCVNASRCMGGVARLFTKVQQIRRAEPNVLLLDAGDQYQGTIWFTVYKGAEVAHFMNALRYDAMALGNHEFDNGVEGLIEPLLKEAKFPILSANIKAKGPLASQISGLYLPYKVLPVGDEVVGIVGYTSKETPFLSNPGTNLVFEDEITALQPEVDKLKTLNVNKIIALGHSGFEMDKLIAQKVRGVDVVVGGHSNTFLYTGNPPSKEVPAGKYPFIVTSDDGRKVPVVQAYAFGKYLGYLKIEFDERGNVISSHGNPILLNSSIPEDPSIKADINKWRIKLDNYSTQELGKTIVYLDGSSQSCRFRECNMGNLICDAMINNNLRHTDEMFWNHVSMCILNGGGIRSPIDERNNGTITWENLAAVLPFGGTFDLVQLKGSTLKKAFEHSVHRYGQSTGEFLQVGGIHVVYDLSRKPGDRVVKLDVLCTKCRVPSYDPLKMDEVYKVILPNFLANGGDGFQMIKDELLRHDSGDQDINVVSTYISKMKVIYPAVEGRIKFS
As to the kind of experiment: binding titration on Calu6 cells, average of 2-6 experiments.
The EC50 is the concentration at which the effect is half-maximal. High values mean lower potency in that assay, low ones higher potency in that assay. Consider B1, for which the EC50 was 1.93 nM.
Same read-out and setting: the result for B2 reads 0.35 nM.
The same measure, in the same setting: the figure for B5 is 0.82 nM; for B6 it is 11.7 nM.

In the next experiment the target is T3, N-hCD73-his (N-terminal domain of human CD73, residues 26-336, His tag) (human, UniProt P21589 26-336).
T3 sequence: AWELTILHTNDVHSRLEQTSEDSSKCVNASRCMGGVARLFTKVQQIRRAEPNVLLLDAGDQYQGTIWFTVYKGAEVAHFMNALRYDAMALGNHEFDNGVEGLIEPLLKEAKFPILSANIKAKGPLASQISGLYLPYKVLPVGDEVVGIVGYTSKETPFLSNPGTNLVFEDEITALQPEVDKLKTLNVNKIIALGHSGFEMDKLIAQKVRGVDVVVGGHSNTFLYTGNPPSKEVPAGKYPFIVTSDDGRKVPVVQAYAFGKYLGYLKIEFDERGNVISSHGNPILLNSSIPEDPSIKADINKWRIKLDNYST
Put plainly: SPR. In general terms: In SPR one partner is held on a chip, and binding of the other changes the refractive index at the surface.
In general, Kd refers to a measure of binding affinity in units of concentration. The low end stands for tighter binding, the high end for weaker binding. Take B7: the Kd was 100 to 200 nM.
The molecule B5 had a Kd of roughly 5 nM.
Same read-out and setting: the figure for B8 is roughly 5 nM.

The next experiment concerns the target T2, human CD73 on cells. Put plainly: cell-based or functional assay.
Turning to B1, the “IC50 (nM), cAMP HTRF assay, Calu-6 with HEK293/A2AR cells” value (shortened to “IC50 (nM), cAMP HTRF assay”) came to 4.87 nM and the “Ymax, cAMP HTRF assay (percent of 100 nM 11F11 control)” value was 84%.
Consider B7, for which the “Ymax, cAMP HTRF assay (percent of 100 nM 11F11 control)” value is 80%.
In the case of B2, the “IC50 (nM), cAMP HTRF assay” value is 0.95 nM and the “Ymax, cAMP HTRF assay (percent of 100 nM 11F11 control)” value was found to be 45%.
With B6, the “IC50 (nM), cAMP HTRF assay” value was found to be 13.2 nM and the “Ymax, cAMP HTRF assay (percent of 100 nM 11F11 control)” value was 80%.

The next experiment has as its target T3, N-hCD73-his (N-terminal domain of human …). Put plainly: SPR, mAb captured on protein A. Here is the method:
For these experiments, protein A (Pierce) was immobilized to a density of 3000-4000 RU on flow cells 1-4 of a CM5 sensor chip (GE Healthcare) using standard ethyl(dimethylaminopropyl) carbodiimide (EDC)/N-hydroxysuccinimide […] chemistry, with ethanolamine blocking, in a running buffer of 0.01 M HEPES pH 7.4, 0.15 M NaCl, 3 mM EDTA, 0.005% v/v tween 20. […] The running buffer for the kinetic experiments was 10 mM sodium phosphate, 130 mM sodium chloride, 0.05% tween 20, pH 7.1. The surfaces were regenerated after each cycle using two 30 s pulses of 10 mM glycine pH 1.5 at a flow rate of 30 μl/min. Sensogram data was double-referenced and then fitted to a 1:1 Langmuir model using Biacore T100 evaluation software v2.0.4, to determine the association rate constant (ka), the dissociation rate constant (kd), and the equilibrium dissociation constant (KD).
In general, koff refers to a measure of how fast the partners let go of each other. A higher koff goes with a short-lived complex. As a reminder, the kon is the second-order rate constant of association. As to B1, binding was characterised by a dissociation constant (Kd) of 140 nM, the koff was 0.0076 s⁻¹ and the kon amounted to 55000 M⁻¹ s⁻¹.
The corresponding values for B2 are 0.43 nM, 0.00038 s⁻¹ and 880000 M⁻¹ s⁻¹.
For B3 the same measures were 1.6 nM, 0.00095 s⁻¹ and 610000 M⁻¹ s⁻¹.
For B4 the same measures were 14 nM, 0.0032 s⁻¹ and 230000 M⁻¹ s⁻¹.
Take B5: the Kd was 9.4 nM and 6.2 nM; the koff is 0.00077 s⁻¹ and 0.00049 s⁻¹; the kon was 82000 M⁻¹ s⁻¹ and 79000 M⁻¹ s⁻¹.
B6 came in with a Kd of 41 nM, a koff of 0.006 s⁻¹ and a kon of 150000 M⁻¹ s⁻¹.
Take B8: the Kd was 3.5 nM and 6.5 nM; the koff is 0.00028 s⁻¹ and 0.00051 s⁻¹; the kon is 80000 M⁻¹ s⁻¹ and 79000 M⁻¹ s⁻¹.

For another experiment, the target named is T2, human CD73 on cells. As to the kind of experiment: cell-based or functional assay. This is another data set of the same source.
As to B1, the “EC50 Calu6 inhibition” value was found to be 2.21 nM.
Turning to B2, the “EC50 Calu6 inhibition” value was 0.95 nM, the “EC50 H292 inhibition” value amounted to 1.31 nM and the “EC50 SKMEL24 inhibition” value was determined as 3.72 nM.
The corresponding values for B6 are 8.1 nM, 13.5 nM and 110 nM.

The target of another experiment is T2, human CD73 on cells. Put plainly: cell-based or functional assay. This is another data set of the same source.
With B2, the “EC50 (nM), high-content internalization assay, Calu6, 2 h” value (from here on “EC50 (nM) … 2 h”) came to 2.59 nM and the “Ymax, high-content internalization assay (percent of 100 nM 11F11)” value (“Ymax … (percent of 100 nM 11F11)” below) was found to be 50%.
On to B3, for which the “Ymax … (percent of 100 nM 11F11)” value worked out at 29%.
B4: the “EC50 (nM) … 2 h” value was determined as 8.2 nM and the “Ymax … (percent of 100 nM 11F11)” value is 51%.
Take B5: the “EC50 (nM) … 2 h” value was 0.38 nM and the “Ymax … (percent of 100 nM 11F11)” value is 104%.
